Target: mCherry-TRPV5 (rabbit) (UniProt Q9XSM3)
Assay: single molecule photobleaching counting

Sequence of mCherry-TRPV5 (rabbit) (Q9XSM3 whole entry): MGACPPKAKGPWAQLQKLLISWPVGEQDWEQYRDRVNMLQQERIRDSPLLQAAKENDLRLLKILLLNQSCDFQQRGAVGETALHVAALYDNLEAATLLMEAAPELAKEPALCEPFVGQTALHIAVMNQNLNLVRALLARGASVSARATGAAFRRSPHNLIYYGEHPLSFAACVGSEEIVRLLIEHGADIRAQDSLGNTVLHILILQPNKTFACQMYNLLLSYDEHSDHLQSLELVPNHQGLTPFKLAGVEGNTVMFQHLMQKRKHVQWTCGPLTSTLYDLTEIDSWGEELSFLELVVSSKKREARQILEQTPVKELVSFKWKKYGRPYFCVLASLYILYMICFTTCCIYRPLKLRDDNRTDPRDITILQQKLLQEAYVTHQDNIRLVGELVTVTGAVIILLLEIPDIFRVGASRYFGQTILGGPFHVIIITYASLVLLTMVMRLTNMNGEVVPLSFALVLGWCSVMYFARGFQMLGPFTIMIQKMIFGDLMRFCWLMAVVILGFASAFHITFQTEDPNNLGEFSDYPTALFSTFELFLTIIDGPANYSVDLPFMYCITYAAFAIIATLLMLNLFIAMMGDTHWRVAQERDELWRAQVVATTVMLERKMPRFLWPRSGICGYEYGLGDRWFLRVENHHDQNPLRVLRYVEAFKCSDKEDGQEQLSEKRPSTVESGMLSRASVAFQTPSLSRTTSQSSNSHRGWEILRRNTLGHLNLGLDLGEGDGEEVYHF

Substance: CaM-eGFP (from UniProt P0DP29 1-149) (natural protein)
- stoichiometry N (CaM molecules per TRPV5 tetramer): 2

Source: doi:10.1101/2021.02.16.431366
